Data reported in patent US20260217863A1, “ANTIBODY OR PEPTIDE BINDING SPECIFICALLY TO RNASE A, IMMUNOASSAY DEVICE AND METHOD FOR DETECTING RNASE A, AND METHOD FOR COLLECTING RNASE A” (UIF (University Industry Foundation), Yonsei University, priority 2022, published 2026).

Target: Ribonuclease A (Type II-A) from bovine pancreas (bovine) (UniProt P61823)
Experiment: cell-based or functional assay

Ribonuclease A (Type II-A) from bovine pancreas (bovine), sequence (P61823 27-150): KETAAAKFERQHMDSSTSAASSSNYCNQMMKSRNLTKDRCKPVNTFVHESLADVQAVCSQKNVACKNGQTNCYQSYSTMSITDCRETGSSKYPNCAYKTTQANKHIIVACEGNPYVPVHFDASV

Substance | IC50 for RNase A activity inhibition, HeLa total RNA cleavage, agarose gel image [nM] | inhibition level, RNA probe assay (fluorophore and quencher), inhibitor at 1 µM [%]
Biofact RNase inhibitor | 257 | 35.8
RNaseOUT recombinant ribonuclease inhibitor | 381 | 27.2
